Test results: US20210238283A1 (Y BIOLOGICS, published 2021)

T1: human LAG-3 overexpressed on cells (human, UniProt P18627 23-525)
T1 sequence (looked up): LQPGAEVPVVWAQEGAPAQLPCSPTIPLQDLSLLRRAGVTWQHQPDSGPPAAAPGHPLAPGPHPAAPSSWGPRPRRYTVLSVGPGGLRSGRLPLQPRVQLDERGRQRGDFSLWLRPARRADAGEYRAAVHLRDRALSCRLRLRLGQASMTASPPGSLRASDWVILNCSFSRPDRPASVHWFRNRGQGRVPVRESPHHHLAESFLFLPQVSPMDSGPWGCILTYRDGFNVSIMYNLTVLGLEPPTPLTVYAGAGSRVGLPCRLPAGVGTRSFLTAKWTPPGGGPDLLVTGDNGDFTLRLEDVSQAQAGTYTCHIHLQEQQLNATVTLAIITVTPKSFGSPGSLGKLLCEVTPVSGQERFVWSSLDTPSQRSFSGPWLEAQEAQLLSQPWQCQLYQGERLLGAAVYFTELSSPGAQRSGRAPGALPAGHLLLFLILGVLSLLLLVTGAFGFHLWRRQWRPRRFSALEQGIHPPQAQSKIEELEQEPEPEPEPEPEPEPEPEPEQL

T2: mouse LAG-3 overexpressed on HEK293E cells (mouse, UniProt Q61790 24-521)
T2 construct: whole, on cells; also called HEK293E-mLAG3; mLAG3 (Mouse)
T2 sequence (looked up): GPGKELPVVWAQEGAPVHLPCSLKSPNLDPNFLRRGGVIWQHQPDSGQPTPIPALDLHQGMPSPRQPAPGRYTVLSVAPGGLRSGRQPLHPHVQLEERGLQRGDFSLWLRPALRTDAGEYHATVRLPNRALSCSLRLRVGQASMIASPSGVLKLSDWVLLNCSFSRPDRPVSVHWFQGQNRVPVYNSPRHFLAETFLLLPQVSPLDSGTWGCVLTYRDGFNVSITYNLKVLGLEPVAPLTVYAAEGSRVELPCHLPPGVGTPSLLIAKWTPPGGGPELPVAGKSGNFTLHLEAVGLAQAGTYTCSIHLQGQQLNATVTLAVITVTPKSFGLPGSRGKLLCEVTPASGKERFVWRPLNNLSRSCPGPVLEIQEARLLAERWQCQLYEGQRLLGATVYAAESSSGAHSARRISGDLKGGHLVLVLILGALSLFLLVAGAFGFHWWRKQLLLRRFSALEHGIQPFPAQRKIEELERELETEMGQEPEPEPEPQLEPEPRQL


What was measured:
[1] = target: T1, human LAG-3 overexpressed on cells; assay: cell-based or functional assay
[2] = target: T2, mouse LAG-3 overexpressed on HEK293E …; assay: flow cytometry, HEK293E cells overexpressing LAG-3, antibody 2 µg/ml
Description: (§1) After that, the cells were washed three times with PBS containing 2% FBS and then subjected to the reaction for 30 minutes at 4° C. with anti-human IgG antibody (#FI-3000, Vectorlabs) linked with FITC fluorescent. The cells were washed by the same washing process as above followed by suspension in 0.2 ml PBS containing 2% FBS. The cells were then analyzed by FACSCanto II flow cytometer.

[3] = target: T2, mouse LAG-3 overexpressed on HEK293E …; assay: flow cytometry, HEK293E cells overexpressing mouse LAG-3
Description: as §1

[4] = target: T1, human LAG-3 overexpressed on cells; assay: flow cytometry, HEK293E cells overexpressing LAG-3, antibody 2 µg/ml
Description: as §1

EC50 (µg/ml), LAG3/MHC class II Blockade bioassay [1] [µg/mL]	binding result [2]	binding result [3]	binding result [4]	Binder
0.655	binds			LAG3-1E09_CDR_1D04 (antibody, V domains shown, Tested as full IgG) VH: EVQLVESGGDLVKPGGSLRLSCAASGFSFSDHYMNWIRQAPGKGLEWVAYIDTSATYIYYADSVKGRFTISRDNAKNSLYLQMNSLRAEDTAVYYCARDNWGSLDYWGQGTLVTVSS VL: DIQMTQSPSSLSASVGDRVTITCQASQDISNYLNWYQQKPGKAPNLLIYDASNLETGVPSRFSGSGSGTDFTLTISSLQPEDFATYYCQQSYITPYTFGQGTKLDIK
0.284		no binding (tested: 2 µg/ml)		LAG3-1E09_LS_1H04 (antibody, V domains shown, Tested as full IgG) VH: EVQLVESGGDLVKPGGSLRLSCAASGFSFSDHYMNWIRQAPGKGLEWVAYIDTSATYIYYADSVKGRFTISRDNAKNSLYLQMNSLRAEDTAVYYCARDNWGSLDYWGQGTLVTVSS VL: DIQMTQSPSSLSASAGDRVTITCQASQDIRNSLSWYQQKPGKAPKLLIYDASNLETGVPSRFSGSGSGTYFTFTISSLQPEDFATYYCQQYDNVPVTFGGGTKLEIK
1.82		no binding (tested: 2 µg/ml)		LAG3-1E09_AM_1B03 (antibody, V domains shown, Tested as full IgG) VH: EVQLVESGGDLVQPGGSLRLSCAASGFSFNDHYMNWIRQAPGKGLEWVAYIDTSATYIYYADSVKGRFTISRDNAKNSLYLQMNSLRAEDTAVYYCARDNWGSLDYWGQGTLVTVSS VL: DIQMTQSPSSLSASVGDRVTMTCQASQDVSNYLNWYQQKPGKAPKLLIYDASNLEIGVPSRFSGSGSGTDFTFTISSLQPEDTATYYCQQYDHLPPYTFGQGTKLEIK
0.448		no binding (tested: 2 µg/ml)		LAG3-1E09_AM_1H07 (antibody, V domains shown, Tested as full IgG) VH: EVQLVESGGDLVQPGGSLRLSCAASGFSFNDHYMNWVRQAPGKGLEWVAYIDTSATYIYYADSVKGRFTISRDNAKNSLYLQMNSLRAEDTAVYYCARDNWGSLDYWGQGTLVTVSS VL: DIQMTQSPSSLSASVGDRVTITCQASQDISNYLNWYQQKPGKAPKLLIYEASSLESGVPSRFSGSGSGTEFTLTINSLQPEDFATYYCQQSYSTPFAFGPGTKVEIK
		no binding (tested: 2 µg/ml)	binds	LAG3-1E09_FR_1A06 (antibody, V domains shown, Tested as full IgG) VH: EVQLVESGGGLVKPGGSLRLSCAASGFSFSDHYMNWVRQAPGKGLEWVAYIDTSATYIYYADSVKGRFTISRDNAKNSLYLQMNSLRAEDTAVYYCARDNWGSLDYWGQGTLVTVSS VL: DIQMTQSPGTLSMSPGEKATLSCRASQTVTTNLAWYQQKSGQAPRLLIYDASTRATGVPDRFSGSGSGTDFTLTISRLEPEDFAVYYCQQYGSSPYTFGQGTKLDIK
0.485	binds			LAG3-1E09_FR_1F03 (antibody, V domains shown, Tested as full IgG) VH: EVQLVESGGGLVKPGGSLRLSCAASGFSFSDHYMNWIRQAPGKGLEWVAYIDTSATYIYYADSVKGRFTISRDNAKNSLYLQMNSLRAEDTAVYYCARDNWGSLDYWGQGTLVTVSS VL: not shown
0.482	binds			LAG3-1E09_AM_2E09 (antibody, V domains shown, Tested as full IgG) VH: EVQLVESGGDLVKPGGSLRLSCAASGFSFSDHYMNWVRQAPGKGLEWVAYIDTNATYIYYADSVKGRFTISRDNAKNSLYLQMNSLRAEDTAVYYCARDNWGSLDYWGQGTLVTVSS VL: DIQMTQSSSSLSASVGDRVTITCQASQDITDFLNWYQQKPGKAPKLLIYDASNLETGIPSRFSGSGSGREFTLTINSLQPEDVASYYCQQSYTTPLTFGGGTKVDIK
0.246	binds			LAG3-1E09_AM_2G11 (antibody, V domains shown, Tested as full IgG) VH: EVQLVESGGDLVKPGGSLRLSCAASGFSFTDHYMNWVRQAPGKGLEWVAYIDTSATYIYYADSVKGRFTISRDNAKNSLYLQMNSLRAEDTAVYYCARDNWGSLDYWGQGTLVTVSS VL: DIQMTQSPSSLSASVGDRVTITCRASQSISYYLNWYQQRPGKAPKLLIYDASNLETGVPSRFSGSGTGTEFTLTISSLQPEDFATYYCQQSYSTPFAFGPGTKVEIK
1.51	binds			LAG3-1E09_LS_1G11 (antibody, V domains shown, Tested as full IgG) VH: EVQLVESGGDLVQPGGSLRLSCAASGFNFSDHYMNWVRQAPGKGLEWVAYIDTTATYIYYADSVKGRFTISRDNAKNSLYLQMNSLRAEDTAVYYCARDNWGSLDYWGQGTLVTVSS VL: DIQMTQSPSSLSASVGDRVTITCQASQDIDKYLNWYQQKPGKAPKLLIYDASNLETGVPSRFSGSGSGTDFTLTISSLQPEDFATYYCQQSYSTPNTFGQGTKLDIK
0.242	binds			LAG3-1E09_FR_1G07 (antibody, V domains shown, Tested as full IgG) VH: EVQLVESGGGLVKPGGSLRLSCAASGFSFSDHYMNWVRQAPGKGLEWVAYIDTSATYIYYADSVKGRFTISRDNAKNSLYLQMNSLRAEDTAVYYCARDNWGSLDYWGQGTLVTVSS VL: DIQMTQSPSSLSASVGDRVTITCRASQGISTYLNWYQQKPGKAPKLLIYDASNLETGVPSRFSGSGSGTDFTLTISGLQPDDFALYYCQQSYTTPYSFGPGTKVEIK
1.06	binds			LAG3-1E09_CDR_1E03 (antibody, V domains shown, Tested as full IgG) VH: EVQLVESGGDLVKPGGSLRLSCAASGFTFNDHYMNWIRQAPGKGLEWVAYIDTTATYIYYADSVKGRFTISRDNAKNSLYLQMNSLRAEDTAVYYCARDNWGSLDYWGQGTLVTVSS VL: DIQMTQSLSSLSASVGDSVTITCQASQDISNYLNWYRQKPGKAPELLIYDTSNLETGVPSRFSGSGSGTDFTLTISSLQPEDFATYYCQQSYSIPYTFGQGTKVEIK
0.811	binds			LAG3-1E09_FR_1A10 (antibody, V domains shown, Tested as full IgG) VH: EVQLVESGGGLVKPGGSLRLSCAASGFSFSDHYMNWIRQAPGKGLEWVAYIDTSATYIYYADSVKGRFTISRDNAKNSLYLQMNSLRAEDTAVYYCARDNWGSLDYWGQGTLVTVSS VL: DIQMTQSPSSLSASVGDRVTITCQANQDISNYLNWYQQKPGKAPKLLIYDASNLETGVPSRFSGGGSGTDFTLTINNLQPEDFATYYCHHSYNTPITFGQGTRLEIK
0.488		no binding (tested: 2 µg/ml)		LAG3-1E09_AM_1F09 (antibody, V domains shown, Tested as full IgG) VH: EVQLVESGGDLVKPGGSLRLSCAASGFNFSDHYMNWIRQAPGKGLEWVAYIDTSATYIYYADSVKGRFTISRDNAKNSLYLQMNSLRAEDTAVYYCARDNWGSLDYWGQGTLVTVSS VL: DIQMTQSPSSLSASVGDRVTITCQASQDIRNYLGWYQQKPGKAPNLLIYDASTLETGVPSRFSGSGSGTDFTLAISSLQPEDFATYYCQQSYSTPYTFGQGTKLEIK
0.606	binds			LAG3-1E09_AM_2H06 (antibody, V domains shown, Tested as full IgG) VH: EVQLVESGGDLVKPGGSLRLSCAASGFTFSDHYMNWVRQAPGKGLEWVAYIDTIATYIYYADSVKGRFTISRDNAKNSLYLQMNSLRAEDTAVYYCARDNWGSLDYWGQGTLVTVSS VL: DIQMTQSPSSLSASVGDRVTITCQASQDISNYLNWYQQTPGKAPKLLIYDASNLETGVPSRFSGSGSGTDFTLTISSLQPEDFATYYCQQGYGTPYTYGQGTKLEIK
		no binding (tested: 2 µg/ml)	binds	LAG3-1E09_LS_1A10 (antibody, V domains shown, Tested as full IgG) VH: EVQLVESGGDLVKPGGSLRLSCAASGFSFSDHYMNWIRQAPGKGLEWVAYIDTSATYIYYADSVKGRFTISRDNAKNSLYLQMNSLRAEDTAVYYCARDNWGSLDYWGQGTLVTVSS VL: not shown
0.151	binds			LAG3-1E09_LS_1E06 (antibody, V domains shown, Tested as full IgG) VH: EVQLVESGGDLVKPGGSLRLSCAASGFSFSDHYMNWIRQAPGKGLEWVAYIDTSATYIYYADSVKGRFTISRDNAKNSLYLQMNSLRAEDTAVYYCARDNWGSLDYWGQGTLVTVSS VL: DIQMTQSPSSLSASVGDRVTITCQASQDISHYLNWYRQKPGKAPKLLIYDASNLETGVPSRFSGSGSGTLFTLTISSLQPEDFATYYCQQSYSTPYTFGQGTKLEIK
